Source: the DeepSol protein solubility set

assay: soluble on expression in E. coli; label from the status in PepcDB or PDB records

Sequence | soluble on expression in E. coli
MIKQRTLKQSIKVTGVGLHSGEKVTLTLRPAMPNTGVVYYRTDLNPAVAFPADPNSVRDTMLCTALINEQGVRISTVEHLNAALAGLGIDNIIIEVDAPEIPIMDGSASPFIYLLLDAGIEEQNAAKKFIRIKQYVRVEDGDKWAEFKPYNGFRLDFTIDFDHPAIGKDVRNYEMNFSAQAFVHQISRARTFGFMKDIEYLQSQGLVLGGSLDNAIVLDDYRILNEDGLRFKDELVRHKMLDAIGDLYMAGYNIIGDFKAYKSGHGLNNKLLRAVLANQEAWEFVTFEDKAQVPQGYVAPVQVLILEHHHHHH | soluble
SLMVLAMESRVAPEIPGLIQPGNVTQDLKMMVCKLLNSPKPTKTFPGSQPVSFQHSDVEEKLLAHDYYVCEKTDGLRVLMFIVINPVTGEQGCFMIDRENNYYLVNGFRFPRLPQKKKEELLETLQDGTLLDGELVIQTNPMTKLQELRYLMFDCLAINGRCLTQSPTSSRLAHLGKEFFKPYFDLRAAYPNRCTTFPFKISMKHMDFSYQLVKVAKSLDKLPHLSDGLIFTPVKAPYTAGGKDSLLLKWKPEQENTVDFKLILDIPMVEDPSLPKDDRNRWYYNYDVKPVFSLYVWQGGADVNSRLKHFDQPFDRKEFEILERTYRKFAELSVSDEEWQNLKNLEQPLNGRIVECAKNQETGAWEMLRFRDDKLNGNHTSVVQKVLESINDSVSLEDLEEIVGDIKRCWDERRANMAGGSGRPLPSQSQNATLSTSKPVHSQPPSNDKEPKYVDEDDWSD | soluble
MLTLSFATGTEPNKWFTRFEERTDHGGLRTLSDDDPLSLLVDATADLALVRLPDPRMDNDDTVHVVELYQESMGVALPKEHTLTLLDVVEPSDLDGEIINYITPPSLEVDVAAVRAQLQMVAANVGVVIAPRPLLKVLSGKLVEHREFSDPQRYGQARTRIALVWKKERDGEDIQDFVGIAKGRTVQSSRQSNAKKVSAREKTLAKQKRRKEAGKKPVRKGGRRKR | not soluble
MVYFYESKPTEYSTPYQIVMGKDKFENDLLIKWSYRELNYVWFHADKYSSGHVYLKLRPNEKTIDDIPQEVICDCLQLCKSESIQGNKMPQCTILITPWHNLRKNRYMNPGEVSFKSLRQCRKMECGARDNKILNRLAKTRVELFNNVEATLNEAKKTKNGDFFVNYIESNRSNLIEEEKLRKVAKKNQKKKNKQSKDEVTDDMQLEV | not soluble
MIMGFWNGVAKAAKAVGEGMIEAGNEHKALKMEYAEKSSEELHEIVKSDGFFKNSTREKSAAYAILKERGEV | not soluble
MSQVLTTYETPVLPEWVDYNGHLRDAFYLLVFSYATDALMAHIGLDSQNRDASGHSLFTLECHLNFLHEVKEGARVEVRTQLLGHDRKRLHIHHALYLPGSGQALALSEQMLLHVSLDGPRSAPFEGEVLARVEALAEAHRALPVPEGVGRVIGLPPVR | not soluble
MNIVPILLIRFYQSFISPLLGPSCKYHPTCSNYAIEAFRQHNFFYASWLTVWRVLRCNPFSKGGYDPVPPKSVKSAGNSKDSKLEHHHHHH | not soluble
MADYTTIAAQPRNEFGKGFARRLRVAGQVPGVIYGVDVEAPIHFSINRLELHAVLRAHGVNAIIELDIEGEKHLTMIKHVDQNVLTLNADHVDLLAIKRGEKVEVEVPVVLTGETAPGTTLVQDADVVLVEADVLSIPEEITFSVEGLDVDSKVLAGDLAMPANTSLVADAETVIASVNHEEVAEEAEETEGEDAEEAPAAEGEE | soluble
NDVKRALEVEEINKLLNEVPLKRLPEDLVRCRVWANLMFQLRGMPFVDLAFLHKSDLKGNTLSYRRHKTGGQMIVDIPPTAMELIRQYQNTDCNSPYLFPILSGTKTGEELYIEYQQALRIMNYNLGRLARRCGVITKVSSYTTRHTWATLAKYCNFSEQLICEAFGHSSVKVTETYLKNFKYEEIKKANDAI | not soluble
MGSDKIHHHHHHMPGGGNGILYSNLAAVKEMKMNNLRVVIITGLSGSGKSTALRALEDIGFYCVDNMPVVLLPQFLEIQSDKSKDISQVAMVMDLREKSFIETYKGIFEQIKARGYKIEIVFLYATDDALLHRFSETRRVHPLSSVSIMEGIRLEREQLRALEEMADKVIDTTSCNVHQLKDIVQRHFLPSSTARRLFIHLISFGYRYGLPADADLVLDVRFLPNPYWVESLKSFNGHHQDVRRYVLSAEASSIFLQKLFDLMEFLIPLYEKEGKPRITIAVGCTGGKHRSVVMANELWSYFSGRDYPVNVNHRDVGKS | not soluble
FLDDINEDALPNDRTGYQDTLIWNKLFNYQKDAATGIINKLESYNGCILADSVGLGKTFTALAVIKYYELRNKSVLVLCPKKLADNWLNYSRNLKTNIFARDRFNYDVLCHTDLSRTSGESFGTPLNRINWGNYDLVIIDESHNFRNNDAYKDKETRYQKLMNKVIKEGVKTKVLMLSATPVNNRFNDLRNQLALAYEGDS | not soluble
SLNTPFSIDEVSFRDLPGWGQDDPRKLFPAMATILSHLRNAKPYRTGALGITAAELVSLLELAERGQVNSPEQARQFFETNSVPFRISPAQGKSGFVTAFYEPELEVSATPDDVWRYPIYRRPPELVDIDNDNRPDGFDPSYAFGKADEEGISYFPDRRAIDEGCLRGRGLEIAWARSKVDLFFVHVQGAARLVFPDGAIKRITYAAKAGHVFSPIGRLLLDRGELDPKTISMQTIRQWLADHPDEVDGVLWHNRSYIFFREADVAGLDMGPIAAAKVPLVAGRALAVDRLIHTFGLPFFIHAPTLTHLDDGKPFARLMLALDTGSAIVGPARGDIFTGSGFEAGELAGTVRNEADFYILLPRIAAERYRR | not soluble
MGSDKIHHHHHHMEGRINPENWKDIFSDTLYIITDPNGVTAVIPEETAKTASSEPVKAAPADIKPTPVTTATPALPKIPSIPTPASATPNQQPAPVAAATAVLKPAGKYSNGILILMHVSYTMTPAQQEMLGKIVKAVQLDYNECGVLQVSAPVSLKEIETLKPRIVLSFGLPTDAFEPRMTKDLYSIQKHNSTIMLLADSLAKLETTVALKSNLWNAMKEMFGIK | not soluble
MAHHHHHHMANSRASTLAAAAAAASTAAVKPLSYVSLRSHDGKHVILPVAAAAGSRVLHGIFQGLYVMRLHQCNSPADQPPHAQHEQYPMVEEDAQQGELHIPRSGSSSSSGSDVANKAHGSAEVKVDDPIPIIEDEDDIEEDEARHQVNGAAYRSYAAVFPSNVACVPPPPSPLLSTSPPAAPSPCVPPLLEVPICSLEFSTLMRVAEFLVVKITLASHPHYLHEANVFGDLDRTSERDQLVAMQVLLGADFLNC | not soluble
MGSDKIHHHHHHMILTVTASPYLLSTNELDGTIEIGEANKIRQVSTVAGGFGTGVAATLFYGGNETFAVFPAPEISHYMRLVTFAGLPHEIIPVAGPIPMHLTMRDAEGNETKFKDSPMPLDVSQLAILRDLVVRRAEDAAWVLLGGNLPSIAPAAWFVDVVRSLRLYHPHVKVAIAATGAALRAVIRQLAATSPDALIVAAEEIEIATGLEPKTLRGPWVEGDLSPTVAAARALIDSGVTEVLVTNKRTESLYVSESESLLASYDSTPGKQGVNWRESFTAGFLAASNDGKSTEDSVINAVAYANAEGSEWDNYIPTPDKLRAEHVVIKSL | not soluble
MSIRSWPAAERPRERLLELGAASLSDAELLAIFLRTGVAGKSAVDLARHLLNQFDGLRSLLDADQPAFTAQLGLGPAKFAQLQAVMEMARRHMAESLRRDSALENPAQVRNYLKAQLRHEPHEVFACLFLDNKHRVMTFEILFRGTINASYVHPRQVVKRALAHNAASLILCHNHPSGITTPSRSDIDLTKRLKEALKLVDVHVLDHVIVGDGEPLSMVEKGLM | not soluble
MIQDVIEKKLSDEFQPEFLKVINESDMHNVPRGSESHFKVTVVSERFAGLRPVARHRLVNQTLADELANHIHALAIHTYTTQEWQQMNQESPESPMCLGGSRKSAQ | not soluble
MVMSSEGGEDRWVFGYGSLMWRPGFPFIDRRTAVLHGRRRAFCIYSVHHRGTYERPGLVLGLAPGGSVRGMAYRVAAAEWEGVYAYLREREQPTETYFETWREVKVDGGDKAPALVFLSDMKHSQWAGDLTLEQQAALIAGAVGLSGPNIDYLRDLVMHLHEDGVRDHAMEKLLKMVEAREAALEHHHHHH | not soluble
MNERLIFNPKQLTSARIARGLTMKELAEKAELSRQMISNYESGKTIPKADSILKLISVLQFPRSFFSADTFELYSGATFFRSRSAATKKVRDMQKERLKYVQEVYKVLATYVNFPKVCLPELIEKSIYEITEEEIVKKAEELRKIWGLDLISPVPNLIQLAEQNGVIISEANMSNPTLDAVSRWMIGRPFIMLTDNHESAVRRRFNVAHELGHILLHNGVESIHEYSQTELKNIIEYQANLFAAHFLLPSAAFSDSLLSISLEYYIDLKKYWKVSLQSMIQKIYTLALINDDQRLYLNKRIAKNKWKTKEPYDEQLTIEQPEVFQKVYHMILEHQVIPASQLNQAFKLPKEEIEKILGTAIQTEQDKTEIVLELLRSNK | not soluble
MGIYEAIQATIKEAMKARDERTLAFARVVKAELDRKGDGKPLPDEEAVKVLKALKEIALEQGNAFEAEFLDRFLPKEMSEEELEAWIREHVDLSQFKNPLAAIGVVTKALGPKAPGEKVRKVIERLTR | soluble
YDSEVIEYAKEQENIISKLEYRVYKHDDGRSVNRQDLMRDYARVLYSSSFRRLQGKMQLLGVDASKFNRNRLTHSLEVAQIARSIAYDLELNHTVVAETASLAHDIGNPPFGHYGEVVLNDLSLACGGYEGNAQAFRILRTLEKKHYAYPGLNLNVRTLMAITKYFFNKHQNNKKFLYDADYEFLKTELDSKGVTVTKSIDAEIMDLADEIAYAAHDLEDALSFGMISLGEIVHEFSISDKFKDAYPTMTDIAKEAQNVAMKASRSGTSEEYAIVLKKELTSMIVNILCSDIGLVDGCLGYKRHAKLAEGLKKLLFKAILRKKDIQLYERRGEQIIRGLFEVYSDEKYNKDNMLLPPELRAINDCKTRLVTDYISGMMDSYAAQEYEKYFGKGSADKLYFK | soluble
MGSDKIHHHHHHMKIAVTGKGGVGKSTIVGMLARALSDEGWRVMAIDADPDANLASAIGVPAERLSALLPISKMTGLARERTGASETTGTHFILNPRVDDIPEQFCVDHAGIKLLLMGTVNHAGSGCVCPEHALVRTLLRHILTKRKECVLIDMEAGIEHFGRGTIEAVDLLVIVIEPGSRSLQTAAQIEGLARDLGIKTICHIANKLASPVDVGFILDRADQFDLLGSIPFDSAIQAADQAGLSCYDLSPACRDKAHALMAALLERVGPTQGVS | not soluble
MGHHHHHHSHMCNTPTYCDLGKAAKDVFNKGYGFGMVKIDLKTKSCSGVMEFSTSGHAYTDTGKASGNLETKYKVCNYGLTFTQKWNTDNTLGTEISWENKLAEGLKLTLDTIFVPNTGKKSGKLKASYKRDCFSVGSNVDIDFSGPTIYGWAVLAFEGWLAGYQMSFDTAKSKLSQNNFALGYKAADFQLHTHVNDGTEFGGSIYQKVNEKIETSINLAWTAGSNNTRFGIAAKYMLDCRTSLSAKVNNASLIGLGYTQTLRPGVKLTLSALIDGKNFSAGGHKVGLGFELEA | not soluble
MGAQNSKRKDLKNINDEDYAHFMEKLKKHTDGKDKMTRDQFVAMFIPILGEYSSQFYFRLVKNEPQGVLLAKTILKCIDTGLGHFDQLADMLRFCFGDQKDQIMRNVVKIFCEGNKFTREDQVRLYDYFETENTKPVSELESFFSMCPLFAYCASFIFQRLLDKTGDSKMPILSDKTHLMGNIDQLVLNSHLPFDRRKNWTLLYSNMKHGQSFSQLVKCINGEGPCMIVIRSMKGRRFGFFASQGFLAGPQYRGTAECFLFQLAPKIATFDATGRTENYVYLNYQQQQHPNGLGIGGTESVWPLFIHEEFGGGTCQKNSSSFEPCHIAEEDEFKIKTIEAWRPGDKPQKSFEEQILLEERSPEKSIIDKDPEARAVLELAGKSMHSEAYRDPAPLLDGE | not soluble
